Source: patent US20190284262A1 (Memorial Sloan Kettering, published 2019)

Legend:
[1] = target: T1, HLA-A*02:01 on T2 cells alone (no peptide added) (human); experiment: flow cytometry, phage on T2 without peptide; secondary only 320, unstained 91.4
T1 construct: TAP-deficient T2 cells without pulsed peptide; negative control target, and the HLA molecule whose stabilisation by peptides is read in the T2 stabilization assay; also called HLA-A*02 molecule; HLA-A2 molecule

[2] = target: T1, HLA-A*02:01 on T2 cells alone (no …); experiment: flow cytometry, phage on T2 without peptide
T2+EW [3] = target: T2, T2+EW (Homo sapiens, UniProt A*02:01); experiment: flow cytometry, phage on T2 + EW peptide; secondary only 310, unstained 93
T2 construct: on the surface of T2 cells; irrelevant control peptide; also called EW peptide/HLA-A*02:01 complex on T2 cells; T2 pulsed with EW peptide

[4] = target: T3, Foxp3-7 peptide/HLA-A*02:01 complex on the cell surface (human); experiment: flow cytometry, phage on T2 + Foxp3-7 peptide; secondary only 318, unstained 95.8
T3 construct: also called Foxp3-7/HLA-A2 complex

[5] = target: T1, HLA-A*02:01 on T2 cells alone (no …); experiment: flow cytometry, phage on T2 without peptide; secondary only 100, unstained 99.5
[6] = target: T1, HLA-A*02:01 on T2 cells alone (no …); experiment: flow cytometry, phage on T2 cells
[7] = target: T3, Foxp3-7 peptide/HLA-A*02:01 complex on …; experiment: flow cytometry, phage on T2 + Foxp3-7 peptide; secondary only 104, unstained 81.7
[8] = target: T4, R3 (RHAMM-R3) peptide/HLA-A*02:01 complex on T2 cells (human); experiment: flow cytometry, phage on T2 + R3 peptide; secondary only 123, unstained 99.8
T4 construct: Control target of the phage staining of T2 cells; also called T2 cells pulsed with R3 peptide; RHAMM 3 (R3)

[9] = target: T3, Foxp3-7 peptide/HLA-A*02:01 complex on …; experiment: flow cytometry, phage on T2 + Foxp3-7 peptide; secondary only 116, unstained 93.8
[10] = target: T3, Foxp3-7 peptide/HLA-A*02:01 complex on …; experiment: flow cytometry, phage on T2 + Foxp3-7 peptide; secondary only 133, unstained 103
T2+EW [11] = target: T2, T2+EW; experiment: flow cytometry, phage on T2 + EW peptide; secondary only 113, unstained 94.7
[12] = target: T4, R3 (RHAMM-R3) peptide/HLA-A*02:01 …; experiment: flow cytometry, phage on T2 + R3 peptide (as the table names the samples); secondary only 109, unstained 80.9
[13] = target: T1, HLA-A*02:01 on T2 cells alone (no …); experiment: flow cytometry, phage on T2 without peptide; secondary only 121, unstained 106

B1: #29 (scFv)
scFv (VL-linker-VH-His/HA tag): QSVLTQPPSVSAAPRQKVTISCSGSSSNIGNNYVSWYQQLPGTAPKLLIYDDNKRPSGIPDRFSGSKSGTSATLGITGLQTGDEADYYCGTWDSSLSAVVFGGGTKLTVLGSRGGGGSGGGGSGGGGSLEMAQVQLVQSGTEVKRAGASVKVSCKASGYTFTNYYMHWVRQAPGQGLEWMGIINPSIGSTNYAQKFQGRVTMTRDTSTSTVFMELSSLRSDDTAVYYCARSFGDSDGADSWGQGTLVTVSSTSGQAGQHHHHHHGAYPYDVPDYAS
notes: also called EXT017-29; EXT017-29 scFv phage clone
Median:FITC-A [1]: 369 | binding result [2]: no binding | Median:FITC-A (T2+EW [3]): 359 | Median:FITC-A [4]: 1010

B2: #25 (scFv)
scFv (VL-linker-VH-His/HA tag): QSVLTQPPSVSAAPGQKVTISCSGSSSNIGNNYVSWYQFLPGTAPKLLIYDNNQRPSGIPDRFSGFKSGTSATLDITGLQTGDEADYYCGTWDNSLSAAVFGRGTKLTVLGSRGGGGSGGGGSGGGGSLEMAQMQLVQSGTEVKRAGASVKVSCKASGYTFTNYYMHWVRQAPGQGLEWMGIINPSGGSTTYAQKFQGRVTMTRDTSTSTVYMELSDLGSEDTAVYYCARSWSKTEGSDRWGQGTLVTVSSTSGQAGQHHHHHHGAYPYDVPDYAS
notes: also called EXT017-25; EXT017-25 scFv phage clone
Median:FITC-A [1]: 386 | binding result [2]: no binding | Median:FITC-A (T2+EW [3]): 375 | Median:FITC-A [4]: 1030

B3: EXT017-21 scFv phage clone (scFv)
scFv: SYELTQPPSVSVAPGQTASMTCGGNNIGSKSVHWYQQKPSQAPVMVVHDDSERPSGIPERISGSKSGNTATLTISRVEAGDEADYYCQVWDSSSDHVIFGGGTKLTVLGSRGGGGSGGGGSGGGGSLEMAQVQLVQSGAEVKKPGASVKVSCKASGYTFTNYYIHWVRQAPGQGLEWMGIIRPSGGITNYAQKFQGRVSMTRDTSTSTVYMELSSLRSEDTAVYYCARSWMSDSYYDGWGQGTLVTVSSTSGQAGQHHHHHHGAYPYDVPDYAS
notes: also called phage clone #21
Median:FITC-A [5]: 138 | binding result [6]: no binding | Median:FITC-A [7]: 2220 | Median:FITC-A [8]: 143 | Median:FITC-A [9]: 428 | Median:FITC-A [10]: 1550 | Median:FITC-A (T2+EW [11]): 143 | Median:FITC-A [12]: 123 | Median:FITC-A [13]: 147

B4: #34 (scFv)
scFv (VL-linker-VH-His/HA tag): QSALTQPPSASGSPGQSVTISCTGTSSDVGAYNYVSWYQHYPGKAPKLMIYEVSERPSGVPDRFSGSKSGNTASLTVSGLQAEDEADYFCSSYAGSNNFVFGTGTKVTVLGSRGGGGSGGGGSGGGGSLEMAEVQLVQSGAEVKKPGSSVKVSCKASGGTFSSYAISWVRQAPGQGLEWMGRIIPILGIANYAQKFQGRVTITADKSSSTAYMALSSLTSEDTAVYYCARGGDYVESWFDPWGQGTLVTVSSTSGQAGQHHHHHHGAYPYDVPDYAS
notes: also called EXT017-34; EXT017-34 scFv phage clone
Median:FITC-A [1]: 361 | binding result [2]: no binding | Median:FITC-A (T2+EW [3]): 386 | Median:FITC-A [4]: 1050

B5: #55 (scFv)
scFv (VL-linker-VH-His/HA tag): QSALTQPASVSGSPGQSITISCTGPTSDFNDYLFVSWYQQHPGKAPKLILYDVTHRPSGVSGRFSGSKSASTASLTISGLQAEDEADYFCGSKTGRTTYVFGTGTKVTVLGSRGGGGSGGGGSGGGGSLEMAQVQLVQSGAEVKKPGASVKVSCKASGYTFDNFGISWVRQAPGQGLEWMGWINTYDGYTNYVEKLQGRVTMTTDTSTGTAYMELRGLRSDDTAVYYCARSVPHQISYGDLWGQGTLVTVSSTSGQAGQHHHHHHGAYPYDVPDYAS
notes: also called EXT017-55; EXT017-55 scFv phage clone
Median:FITC-A [1]: 389 | binding result [2]: no binding | Median:FITC-A (T2+EW [3]): 391
